From patent US12527862B2, “Bactericidal/permeability increasing protein for use in a method of immunization, preferably as an adjuvant in a method of vaccination” (UNIVERSITÄT REGENSBURG, priority 2018, dated 2026) come the findings set out here.

For assay [1], the system named is bone-marrow derived dendritic cells. As to the kind of experiment: Microarray gene expression analysis in BMDCs. Format: cell-based, C57BL/6J mice. To be noted: 4 h. How it is done:
All methods mentioned in this example were carried out as described in Example 1. BMDCs were seeded into a tissue-culture-treated 96-well plate in VLE-RPMI 1640 media (10% FCS, 10% Penicillin-Streptomycin, 50 μM β-Mercaptoethanol) and stimulated with 200 nM huBPI or muBPI. 4 h after stimulation, gene expression analysis was performed by microarray analysis (Affymetrix Mouse Gene 2.0 ST, FIGS. 2A and 2B).

Assay [2] concerns murine macrophages (BMDM). As to the kind of experiment: TNFα ELISA in murine macrophages (BMDM). The format is cell-based. The settings on record: LPS Ec 10 ng/ml or BPI 100 nM, 18 h, ELISA (FIG. 4B). How it is done: Generation of BMDM was carried out similarly to BMDCs; MCSF was used instead of GMSCF for differentiation of BMDM. Cells were re-plated on day 1 of culture and harvested on day 5. On day 1, cells were seeded in new plates and harvested on day 5 for the experiments. Cells were stimulated with LPS Ec (10 ng/ml) or BPI (100 nM) for 18 h before supernatants were collected. TNFα levels were determined by ELISA (OPTEIA™ Murine TNFα ELISA Set, BD Bioscience, Heidelberg, Germany).

In assay [3] the test system is co-culture of lymphnode cells (LNCs) and dendritic cells (DCs). As to the kind of experiment: Co-culture of lymph node cells and BMDCs, cytokine secretion. The format is cell-based, C57BL/6J mice. To be noted: BPI 200 nM, n=5 (FIG. 12). How it is done: All methods mentioned in this example were carried out as described in the preceding examples. Peripheral lymph nodes of C57BL/6J mice were collected to obtain lymph node cells. The cells were isolated by pressing the lymph nodes through a […] cell strainer, flushing the homogenate with either RPMI-VLE or PBS, and collecting the cell dispersion in a 50 ml falcon tube. The suspension was centrifuged (300×g, 21° C., 8 min) and the cell pellet was resuspended in 2 to 5 ml of cell culture medium (VLE-RPMI 1640 medium containing glutamine supplemented with 10% heat-inactivated FCS, 10% penicillin-streptomycin and 50 μM sterile-filtered β-Mercaptoethanol). After this procedure the cell suspension was washed once or twice in cell culture medium or PBS by centrifugation (300×g, 21° C., 8 min). BMDCs were seeded and co-cultured with a threefold excess of peripheral lymph node cells in the presence or absence of BPI (200 nM) in in cell culture medium. Supernatans were collected and measured as described in preceding examples.

The next assay has as its system naïve CD4+ T cells. As to the kind of experiment: T cell activation assay with naïve CD4+ T cells and dendritic cell-derived supernatant. The settings on record: DC supernatant after BPI 200 nM ± ODN 1826 20 nM, aCD3 and aCD28, day five, Luminex, n=3 (FIG. 13A-C). The format is cell-based, C57BL/6J mice. The method, then: Naive CD4+CD25-CD44-CD62L+ T cells were isolated from peripheral lymph nodes and spleen of C57BL/6J mice and purified by MACS and FACS. Naïve CD4+ T cells were cultured in the presence of aCD3 and aCD28 antibodies and dendritic cell-derived supernatant after stimulation with BPI (SN BPI, BPI 200 nM) or after stimulation with ODN 1826 (SN CpG, ODN 1826 20 nM) or after stimulation with BPI and ODN 1826 (SN BPI+CpG, BPI 200 nM, ODN 1826 20 nM) or supernatant without addition of BPI or ODN 1826 (SN NT). On day five, cytokine levels were measured by Luminex. • A. Th1 differentiation as shown by detection of IFNγ (n=3). • B. Th17 differentiation as shown by detection of IL-17 (n=3). • C. […] Lymph node cells were stimulated with aCD3 and aCD28 antibodies and SN BPI or SN NT and incubated for 6h before adding a protein transport inhibitor cocktail and incubating for additional 16h. […]
To isolate CD4+SC and pLNC, cells isolated from spleen and peripheral lymph nodes (see 2.1.3) were sorted by magnetic cell sorting (MACS), using a CD4+ T cell isolation kit (#130-104-454, Miltenyi Biotec). […] The flow-through, containing unlabeled CD4+ cells, was collected and cell number was determined using a hemocytometer. CD4+SC and pLNC were used in experiments or labeled with fluorescent antibodies against non-naïve T cell markers for fluorescence activated cell sorting (FACS) of naïve CD4+ T cells. […]

B1: bactericidal/permeability-increasing protein (protein)
chain: RIKIPDYSDSFKIKHLGKGHYSFYSMDIREFQLPSSQISMVPNVGLKFSISNANIKISGKWKAQKRFLKMSGNFDLSIEGMSISADLKLGSNPTSGKPTITCSSCSSHINSVHVHISKSKVGWLIQLFHKKIESALRNKMNSQVCEKVTNSVSSELQPYFQTLPVMTKIDSVAGINYGLVAPPATTAETLDVQMKGEFYSENHHNPPPFAPPVMEFPAAHDRMVYLGLSDYFFNTAGLVYQEAGVLKMTLRDDMIPKESKFRLTTKFFGTFLPEVAKKFPNMKIQIHVSASTPPHLSVQPTGLTFYPAVDVQAFAVLPNSSLASLFLIGMHTTGSMEVSAESNRLVGELKLDRLLLELKHSNIGPFPVELLQDIMNYIVPILVLPRVNEKLQKGFPLPTPARVQLYNVVLQPHQNFLLFGADVVYK
modifications: labeled with NT647 (Monolith NT Protein Labeling Kit RED-NHS) in the MST experiments
notes: recombinant human BPI, aa32-487 of huBPI with N-terminal HA signal peptide, expressed in HEK293T cells
In the case of B1, the “immunostimulatory effect on BMDCs (gene expression)” value in assay [1] (200 nM huBPI or muBPI, microarray (FIG. 2A)) is “shows an immunostimulatory effect on BMDCs”. Also, the “induced genes important for activation and priming of T cells” value in assay [1] (200 nM, microarray (FIG. 2B)) was “IL-2 is the highest induced cytokine”. Moreover, in assay [2], the “TNFα secretion by macrophages” value was “not in response to stimulation with BPI”. For the same molecule, the “secretion of IL-4 in co-culture of LNCs and BMDCs” value in assay [3] was “not observed”. For the same molecule, the “secretion of IFNγ and IL-17 in co-culture of LNCs and BMDCs” value in assay [3] (threefold excess of lymph node cells) is listed as “Significant secretion”. In addition, the “activation and differentiation of naïve T cells into Th1, Th17 and Th22 cells (IFNγ, IL-17, IL-22)” value in the assay with naïve CD4+ T cells was “promotes not only activation but also differentiation of naïve T cells into Th1, Th17 and Th22 cells”.
